From a protein production outcome set (Wang et al. 2014) come the findings set out here.
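Further: failed if final PepcDB status was selected cloned or expressed and not failed if soluble or beyond.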

The nature of this data set: label from the status in PepcDB records.
As for “MPDLMHSELTMSGPEQSLLAGALLGAGLPADAHRHLELAGRDYQSEALAEQHLREAHLLAPDHAAVLIGLYRFYFYKGRLGEALEVAQACLCKAARDNGLASDWRKVRRGDAEFSSYSAVLPRFYLFALKAYAYLQMRLGQLDEGHAAVEKLLELDPTDKVGAAVLLDVWRRIGLEHHHHHH”, the protein production result is on record as “not failed”.
To “MLELIIILLFIILSAIFSASETAYTSLSIIQIQDIRKKGKSGISVYNLVQSPSKLITTILIGNNISNIVASTLTTKFVLEKYGNSALAISTGLITIIVLIFAEILPKQIAILNNEIIALSTSFFLKPLIFIFTPLIYIINKIIKKILNLFKVKTSSQMTKESIKNMLSLAGSLGILKNDSRIFMQKMLDIDQVRASEIMTHRTGVFSLSSSSKLKDVIKLIKEEGYSRIPIYKGQSREQIIGILIAKDLIEVNKKDMNKNVSQFIKPAVFVQQNKRIKDILDIMRKKQKIMAIVIDEYGGFSGILTIEDIVEKIFGAISDEYDIKEEKPLITQINDNTYSILGETTFDEIEEAIGISIKHKEYTNTIGGYLIDLLDKIPTKNETVKTNDGEYFIKEIQNNKIETITFIKSKK” belongs “failed”; to “RGNLGQSQKVLIEFVSANPTGPLHVGHGRGAAFGATLGNVLKAAGYDVTLEYYVNDAGRQMNILAVSVWLRYLELAGEPIVFPANGYKGQYVYEIAQEIWSEQGNQFVHPWISVVENLPADEPEGGDKETYIDAIIARAQSLLGKDGFANFHQHALKTVLDDIKDDLQAFGVRFDSWFSEQSLFEDGSIEKGIQALKDRGHTYEREGALWFRATDFGDEKDRVLVRANGQTTYFASDVAYHWNKYDRGFDRVIDIFGADHHGYVTRIKTAVKALGHDESALDVILVQFAILYRGGDRVQMSTRSGSFVTLRELREEVGNDAARYFYVARKPEQHMDFDLDLAKSESSDNPVYYIQYAHARICSVLRQLKERGLKWDKDMGL”, “failed”; to “MSLDLPEGHPLKTLYQENKEIMKDAEMLNLYAKTLATTKDERMREEILGVLEEIVSSLRMVGFTHYNREEMLIFPYIERRGLTVIATVLWTKHDEIRAMIKQLAELLRKREEMPWEEFVEKFKAKAGEVAFALSDMVFRENNIFYPTLKALLSEGEWKAIKMQEDEIGYYKVKPPEWDPGEDVKPLHPWEINPELNVEQLLTLPKEVQQALRGQPLEFDKTQLKREEDIDLGTGYLNIEELKAIFEALPVDVTFIDKDDRVRFFSPGERIFTRTPSVLGRPVQLCHPPKSVYVVNKILKAFKEGRKKEATFWLRLREKYVYIKYVPLFNEKGEYIGTLEMTMDIAPYKKIEGEKRLLDWRDEGHITITTDPNSSSVDKLAAALEHHHHHH”, “not failed”.
Take “MAETDPKTVQDLTSVVQTLLQQMQDKFQTMSDQIIGRIDDMSSRIDDLEKNIADLMTQAGVEELESENKIPATQKS”: the protein production entry is listed as “failed”.
With “MKKPVHDMRQHIIDVARSLMTNKGYTAVGLAEVLITAGVPKGSFYYYFKSKEEFGQALLEEYFSEYLGRVDALMARPGTGAERLLAYFMYWSETQGTDLPEGKCLVVKLGAEVCDLSEDMRCVLEVGTAKIIQRISACVEMGVSDGSIHPEGDHQGFAESLYQLWLGASLLVKVNKSTESFDKALNMTKRLLK”, the protein production result is recorded as “failed”.
In the case of “ANLYWFRADWFERPDLKKKFKDKYGYELGVPVNWSAYEDIAKFFSEDVKEIDGKKVFGHMDYGKKDPSLGWRFTDAWFSMAGSGDKGLPNGLPVDEWGIRVEDCHPVGSSITRGGDTNGPAAVFATQKYIDWLKAYAPPEAAGMTFSESGPVPSQGNVAQQIFWYTAFTADMTKPGLPVMNADGTPKWRMAPSPKGPYWKEGMKLGYQDVGSWTFLKSSDEKKRLAAWLYAQFVTSKSVSLKKTIVGLTPIRESDINS”, the protein production entry was “failed”.
As for “MTGIFLQAFVYLVAAVIAVPLAKRLGLGSVLGYLIAGVVIGPIIGLVGEETTTIQHFAEFGVVMMLFLVGLELEPKMLWAMRNRLMGLGGLQVGGTVAAIMGIALYFEQPWTIALAIGLIFALSSTAIVLQTFSEKGLTKTEGGKNAFSVLLFQDIAVIPMLAFIPLLALPELVEQAQNAVQTAAQHHDDLNLVADLPGWAYGIVITASIAIVVVGGHFLSRPLLKYVASSGLREIFTATALMLVIGIAALMSLVGLSPALGTFLAGVVLANSEFRHELESNIEPFKGLLLGLFFITVGAGINFSVLFGDFWLIMALTIGVMVLKALVLFILALIFRVKGSNRWLFTLSLAQAGEFGFVLLSFSVQNHVIPFELSQTLALVVAISMFLTPGLFILFDRVILPRFETQSNERESDTIEETGTVIIAGIGRFGQIVNRLLVSNGVTTVVLDHQANQVDNMRQIGTRAYFGDATRPDMLHTAGIEHAAALVVAIDNQESSVELVKYVKHTYPKVKIIARAFDRGHGYLLRQAGADVIESETYHSALEMGGHAMKALGIHPFFVEQQKDTYKRVEARKSEMLYQAWEDDSEGERFDNNFRELFIQLEEKMAEEMRKDRHDKLSRSERGWTPPPKGYAENFDGENVQDITPPKEEAI”, the protein production result was “failed”.
Turning to “MKLKDDPDIIRWINSRPRQALFASVAMVISTMSIGLFKGFDMWTADFFIFSCLLIGFGLLVGWLQKIYYKKVIFEENSDR”, the protein production entry is “failed”.
Regarding “MSARSLRQEALNLPNAITATRIALIPVFLWFTFYESRVDSFIAAVLYAVTGATDFLDGWVARRKNLVTVIGKFLDPLADKLIVMAALVMLVHLGRVAAWVCIVVLAREFIVTGLRTIAMSEGIVIAAGQEGKHKTAFQVAGITFLLLHYTYPIDAIFFSFDLDANRVGTWLVYISLFFSVWSAVSYFANFIRAVYRREGEAQAAEDVRPNRRTSRG”, the protein production result was “failed”.
To “MIAISSLLGLVVRSFYFLLPDYRAADTWFHASKVKMIISTGTVYFSHVPGYFSAQIIKYPPGYHALIALLSGFKGENIIYGMNSLRIFEILYLPALAYLVGREIRREIGIFAALLTNFSALYYYFVQYALLPAFTNYMIFLLSVYFLEVAMRDRGIKISIMLGITSGIMAVVHPYQYILFQATAFFTTILSKNRKVFLTQLILSASVFLVFTPFSTEYAVKGILMNPRFSNKDNPNFLISILRYSFVDNGQILFGLSLILALILSLMRGGSIEKGLSLSFLLIIFMMLDKTYLNIRIPYLSAVWNSERAFMLTTPLIPILEGIGLNYIFKVKKELAAIFLVVGMMISYPYLRIEHLASESSYLLDPEVVDFIKEVSRIAGNETVMTACEFDSGRWIPILTETPIVCYSKNISEARYLYVDTRGAGEIEVYPINIVNFLDRRVVLFRDGLWLLDLNKHGKPTGDVLSYYHTNGTISYIKDTKWFVYGWVNKNYATMKLRLKGFPYAIMIVNTSSILFSTSESFDRIEIRISGKKGRALEIYLDGEFIKRYEFKTEYGDERIVLKVRVDPGMHYLILYSPNTTYKIPIGVKEIMLKREGP” belongs “failed”; to “SSCGNDESDPDSTVTIAMATVEKQPQYDAPYLVLDNGEKLWVVQHIVPYRDLKAGERIFGNYSFLEAGESGFAYNIRLNDYTLVPVQKIIGLNPDNMDSIGNMKVQIKDMWPSDDYLNVRFMLNFPSPQKPILNLVVNEMIPWTKDGYAHLELRYNNNGSQGRLVPGMVSFKLDDYSPENSELKGIKVLVNPVDGEEKTYIFSYPLTGEDVPGFNPLDLAELK”, “not failed”.
For “MPNLSCGVDNCAYNQNDMCSLNSIKVNGSFANHSEATCCGSFVEKGGFTNAAVDMGPAEPATSVACEAEKCCYNKNCKCHAESIDISGDYAQHQDNTECSTFRQELEHHHHHH” the value was “not failed”; for “MAFAYPKLSEPDTKGEYADGKYKTEGTATEDYTERFQEEIQKVADDNFPGKKNVHLPWKETKEGDIAFIFKNPKKKPILTDSRGKPLKEGTVIRGGSKIRIAGVIAAWEKGAKRGVSLWPDAVRVIKLSEGLEHHHHHH”, “failed”; for “MKLKKRKVAAALLKRFTLPLLFTTGSLGAVTYEVHGDFINFAKVGFNHSPINPVKGIYPTETFVNLTGKLEGSVHLGRGWTVNLGGVLGGQAYDGTKYDRWAKDFTPPSYWDKTSCGTDSMSLCMNATKMWQQSGPGGVINPRGIGWEYMGEWNGLFPNYYPANAYLPGGSRRYQVYKANLTYDSDRVHMVMGRFDITEQEQMDWIYQLFQGFYGTFKLTKNMKFLLFSGWGRGIADGQWLFPIYREKPWGVHKAGIIYRPTKNLMIHPYVYLIPMVGTLPGAKIEYDTNPEFSGRGIRNRTTFYALYDYRWNNAEYGRYAPARYNTWDPFLDNGKWRGLQGPGGATLLLRHHIDINNYFVVGGAYLNIGNPNMNLGTWGNPVAVDGIEQWVGSIYSLGFAGIDNITDADAFTEYVKGGGKHGKFSWSVYQRFTTAPRALEYGIGMYLDYQFSKHVKAGLKLVWLEFQIRAGYNPGTGFLGPNGQPLNLNTGLFESSAFAQGPQNMGGIAKSITQDRSHLMTHISYSF”, “failed”.
As to “MAEERRIDWSSLWKKEDWWAFWLGMLLFVLCLATAYGADIMGWVVKSSTWVDVSKAMGPTSKNFAYLGPIGSFVVSWLVLLILTTIGAVAMGWKGGKFAAAFTVIFILTWICWVIGHNAYIAATDPAKAGVPWSLRMTGEAGYIFALILGLIIGNFFKGFANWLKEAAKPEWFIKTAIVLLGAVVGIKAPTIPPEILYNYLFRGLCAIVEAYLIYWALVYWVARRYFGFSREWAAPLASGISICGVSAAIATGGAIRARPVVPVMVASLVIVFAVVELLFLPFLAATFLQHQPLVAGAWMGLAVKTDGAATASVKWLKL”, the protein production result was “failed”.
In the case of “PGLVDVHTHFMPERVLRKVWDYFDGLGPLTGGLEWPITYRSDEDQRLATIREFGVRAFTAMLYPHKAGMARWLNSWAVDFARRTPDCLHTATLFPEPGVEAYVLEAVEQGARVFKAHVQVGAYDPADELLDPVWGLLAEAGVPVVMHCGSGPAPGKHTGPGPVAQVLARHPRLRLVVAHLGMPEYEDFLDLAERYGEVRLDTTMAFTDFSERLAPFPRGARPRLAGLGDRILLGTDFPNIPYRYVDQLYALERLGLGDDWLRSVCHGNGARLFGL”, the protein production entry was “failed”.
For “MSFVSALCRLAVALWVGGATLFTFVLTPTIFRSESRDAAGRIVGYLFPGYFRWGLACGAVALVALLVVRGKNWIPAAALMVVMLAVTAFQALHIEPKAAELKRQIPSFETTTKDHPLRREFSKLHGISAACNLSVIAGGVVLVILL” the value was “failed”; for “MDTEADLFYRQLPKVELHAHLNGSVSFETMEKLIKRKPHLNIEHSMTAIRRGQRRTLDECFQVFKVIHQLVDSEEDILMVAKSVIQEFAADGVKYLELRSTPREVTETGLSKQRYIETVLEAIRQCKQEGVDIDVRFLVAVDRRHGPEVAMQTVKLAEDFLLSSDGTVVGLDLSGDPTVGHGKDLLAALQKAKNCGLKLALHLSEVPSQIDETELLLNLPPDRIGHGTFLHPDVGGSDSLVDKVCKQNIPIEICLTSNVKGQTVPSYDKHHFKYWYNRGHPCVLCTDDKGVFCTDLSQEYQLAASTFGLTKEAVWILSQQAIGYTFAPEPIKQRLEKTWAELKQQILQ”, “failed”; for “MVLVILDFVVEWRDRVMVRWWSLLLDQGIEWSVKVVKRLLDQGVEWFDMIRGCQSSPLLLLAIKMCTEATKSSQIIMMGVNLRSLKDGFIDKGNSRVHLMANMRKANSLDDDSKPDIHSRDRDPHNYTTS”, “failed”.
“MEKKYIMFIIAMAISFLTTPIVRKFAKHIKAIDIPKDKRRVHKKPIPKIGGLAIYLAFVLVLVLKKGHLEKAEMGIIFGGGIIVLGGFIDDLKCLRPLYKVLFQLLGAFVLIGFGLRISMVTNPLSNSFSYIHINNFIGIAITIIWIIGVTNAFNLIDGLDGLSAGVGFISSVTIAIVAFLNGPTRSEAEILSVILAGSILGFLPYNFNPASIFMGDTGAQFLGFALAAISIQGAIKSASAVVLAVPILVLGLPIYDTIFAIIRRKINGKPITQADRGHLHHRLLDMGLSQKQAVLIMYFISAIMGLVAVIAMQLTNTKAYVIFAGAVICIVGLAWKFGLFKHK”: the protein production entry is listed as “failed”.
